Test results reported in patent US20180369322A1 (published 2018).
Numbered stars: 1 amine (or outer) side, 2 acyl side, 3 side chain; on linkers, the order of the positions; unused ones are H or OH. Bridge positions count the residues as written; N and C are the ends. Square brackets hold non-standard residues; d marks the D form. Primed or numbered codes have the meaning given here. Side chains are listed from the residue outwards. * marks the point of attachment. PEG24′ = polyethylene glycol unit with 24 repeats; Trp(7-aza) = N[C@@H](Cc1c[nH]c2ncccc12)C(=O)O; γGlu = O=C(O)[C@H](CCC(=O)[*:2])N[*:1]; Palmitoyl = CCCCCCCCCCCCCCCC(=O)*; NMeD = CN[C@@H](CC(=O)O)C(=O)O; Chg = N[C@H](C(=O)O)C1CCCCC1; Tle = CC(C)(C)[C@H](N)C(=O)O

Experiments:
Assay in all cases: cell-based or functional assay
rabbit C5 = rabbit C5 (rabbit)
human C5 = human C5 (human, UniProt P01031 19-1676)
dog C5 = dog C5 (dog)
[1] = target: cloned hERG potassium channel (human, UniProt Q12809 1-1159)
cloned hERG potassium channel, sequence (Q12809 whole entry): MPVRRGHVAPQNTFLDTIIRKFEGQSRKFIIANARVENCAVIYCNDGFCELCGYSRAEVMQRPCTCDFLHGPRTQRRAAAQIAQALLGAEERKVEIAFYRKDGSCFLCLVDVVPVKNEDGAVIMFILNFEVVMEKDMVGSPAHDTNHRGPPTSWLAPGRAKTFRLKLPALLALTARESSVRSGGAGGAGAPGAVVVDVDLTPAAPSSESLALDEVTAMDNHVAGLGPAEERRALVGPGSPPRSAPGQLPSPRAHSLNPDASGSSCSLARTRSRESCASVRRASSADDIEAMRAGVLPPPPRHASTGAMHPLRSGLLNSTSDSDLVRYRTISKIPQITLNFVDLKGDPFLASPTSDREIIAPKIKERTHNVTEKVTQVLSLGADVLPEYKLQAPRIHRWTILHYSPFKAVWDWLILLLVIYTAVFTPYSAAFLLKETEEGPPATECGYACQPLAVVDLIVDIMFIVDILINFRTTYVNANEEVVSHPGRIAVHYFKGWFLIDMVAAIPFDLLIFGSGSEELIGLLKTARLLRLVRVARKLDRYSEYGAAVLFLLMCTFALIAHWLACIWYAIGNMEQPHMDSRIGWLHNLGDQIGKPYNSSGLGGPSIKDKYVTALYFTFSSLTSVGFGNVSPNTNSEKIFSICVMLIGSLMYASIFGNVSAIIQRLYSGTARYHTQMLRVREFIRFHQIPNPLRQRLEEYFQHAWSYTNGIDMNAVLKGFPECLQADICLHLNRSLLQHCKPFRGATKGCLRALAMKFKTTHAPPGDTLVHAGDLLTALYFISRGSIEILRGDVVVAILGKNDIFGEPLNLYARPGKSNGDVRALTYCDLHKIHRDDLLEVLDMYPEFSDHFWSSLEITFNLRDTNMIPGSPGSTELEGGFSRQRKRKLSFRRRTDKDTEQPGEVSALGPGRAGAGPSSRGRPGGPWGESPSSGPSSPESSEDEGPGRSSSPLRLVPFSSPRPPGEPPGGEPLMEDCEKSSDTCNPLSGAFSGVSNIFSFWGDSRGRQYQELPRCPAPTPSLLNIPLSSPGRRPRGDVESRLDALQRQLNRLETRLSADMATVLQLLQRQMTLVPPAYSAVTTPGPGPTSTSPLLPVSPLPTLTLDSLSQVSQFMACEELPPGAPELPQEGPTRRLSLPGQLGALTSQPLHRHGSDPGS

human C5, sequence (P01031 19-1676 limits assumed): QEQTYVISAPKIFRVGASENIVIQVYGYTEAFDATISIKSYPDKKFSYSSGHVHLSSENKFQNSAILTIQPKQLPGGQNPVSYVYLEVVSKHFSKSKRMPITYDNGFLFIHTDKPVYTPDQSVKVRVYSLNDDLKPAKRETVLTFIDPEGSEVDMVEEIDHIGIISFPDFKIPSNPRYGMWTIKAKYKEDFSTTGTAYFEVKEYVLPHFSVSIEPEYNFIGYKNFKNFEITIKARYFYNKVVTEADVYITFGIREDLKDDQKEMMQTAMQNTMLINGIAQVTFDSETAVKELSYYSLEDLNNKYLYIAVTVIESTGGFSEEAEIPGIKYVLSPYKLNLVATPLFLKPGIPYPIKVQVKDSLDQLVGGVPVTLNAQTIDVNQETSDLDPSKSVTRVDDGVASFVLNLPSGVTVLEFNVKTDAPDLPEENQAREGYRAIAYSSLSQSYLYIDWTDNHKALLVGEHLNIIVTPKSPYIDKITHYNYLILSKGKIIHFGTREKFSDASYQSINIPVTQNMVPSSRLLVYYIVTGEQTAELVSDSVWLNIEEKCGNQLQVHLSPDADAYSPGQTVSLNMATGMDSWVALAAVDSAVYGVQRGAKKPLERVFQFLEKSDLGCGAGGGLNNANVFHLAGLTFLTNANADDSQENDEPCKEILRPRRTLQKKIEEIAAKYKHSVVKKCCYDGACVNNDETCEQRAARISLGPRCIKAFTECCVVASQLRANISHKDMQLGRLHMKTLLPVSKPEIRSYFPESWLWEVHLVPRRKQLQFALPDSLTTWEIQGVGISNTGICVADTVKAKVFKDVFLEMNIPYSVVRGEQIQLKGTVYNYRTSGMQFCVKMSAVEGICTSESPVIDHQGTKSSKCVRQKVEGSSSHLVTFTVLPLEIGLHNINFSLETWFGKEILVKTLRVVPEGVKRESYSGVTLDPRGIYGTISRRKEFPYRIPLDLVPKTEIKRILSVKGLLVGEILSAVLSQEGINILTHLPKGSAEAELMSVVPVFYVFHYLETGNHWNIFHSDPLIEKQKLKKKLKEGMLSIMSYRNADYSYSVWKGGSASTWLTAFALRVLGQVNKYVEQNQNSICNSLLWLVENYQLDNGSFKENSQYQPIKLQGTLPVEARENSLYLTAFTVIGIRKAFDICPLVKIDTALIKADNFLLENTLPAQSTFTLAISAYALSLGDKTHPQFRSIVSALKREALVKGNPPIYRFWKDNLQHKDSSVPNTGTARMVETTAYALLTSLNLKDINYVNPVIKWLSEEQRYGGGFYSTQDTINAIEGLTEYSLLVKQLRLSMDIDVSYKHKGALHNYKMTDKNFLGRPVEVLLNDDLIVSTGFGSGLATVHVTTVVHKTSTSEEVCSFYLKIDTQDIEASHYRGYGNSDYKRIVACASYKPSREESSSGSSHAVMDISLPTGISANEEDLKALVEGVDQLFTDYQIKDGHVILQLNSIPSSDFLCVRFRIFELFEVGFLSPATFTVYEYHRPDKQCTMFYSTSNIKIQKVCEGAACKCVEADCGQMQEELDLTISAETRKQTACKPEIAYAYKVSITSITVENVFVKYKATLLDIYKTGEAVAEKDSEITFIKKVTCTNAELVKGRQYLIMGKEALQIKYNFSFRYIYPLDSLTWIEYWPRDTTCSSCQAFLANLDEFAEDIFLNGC
dog C5 (dog), sequence (P01031 whole entry): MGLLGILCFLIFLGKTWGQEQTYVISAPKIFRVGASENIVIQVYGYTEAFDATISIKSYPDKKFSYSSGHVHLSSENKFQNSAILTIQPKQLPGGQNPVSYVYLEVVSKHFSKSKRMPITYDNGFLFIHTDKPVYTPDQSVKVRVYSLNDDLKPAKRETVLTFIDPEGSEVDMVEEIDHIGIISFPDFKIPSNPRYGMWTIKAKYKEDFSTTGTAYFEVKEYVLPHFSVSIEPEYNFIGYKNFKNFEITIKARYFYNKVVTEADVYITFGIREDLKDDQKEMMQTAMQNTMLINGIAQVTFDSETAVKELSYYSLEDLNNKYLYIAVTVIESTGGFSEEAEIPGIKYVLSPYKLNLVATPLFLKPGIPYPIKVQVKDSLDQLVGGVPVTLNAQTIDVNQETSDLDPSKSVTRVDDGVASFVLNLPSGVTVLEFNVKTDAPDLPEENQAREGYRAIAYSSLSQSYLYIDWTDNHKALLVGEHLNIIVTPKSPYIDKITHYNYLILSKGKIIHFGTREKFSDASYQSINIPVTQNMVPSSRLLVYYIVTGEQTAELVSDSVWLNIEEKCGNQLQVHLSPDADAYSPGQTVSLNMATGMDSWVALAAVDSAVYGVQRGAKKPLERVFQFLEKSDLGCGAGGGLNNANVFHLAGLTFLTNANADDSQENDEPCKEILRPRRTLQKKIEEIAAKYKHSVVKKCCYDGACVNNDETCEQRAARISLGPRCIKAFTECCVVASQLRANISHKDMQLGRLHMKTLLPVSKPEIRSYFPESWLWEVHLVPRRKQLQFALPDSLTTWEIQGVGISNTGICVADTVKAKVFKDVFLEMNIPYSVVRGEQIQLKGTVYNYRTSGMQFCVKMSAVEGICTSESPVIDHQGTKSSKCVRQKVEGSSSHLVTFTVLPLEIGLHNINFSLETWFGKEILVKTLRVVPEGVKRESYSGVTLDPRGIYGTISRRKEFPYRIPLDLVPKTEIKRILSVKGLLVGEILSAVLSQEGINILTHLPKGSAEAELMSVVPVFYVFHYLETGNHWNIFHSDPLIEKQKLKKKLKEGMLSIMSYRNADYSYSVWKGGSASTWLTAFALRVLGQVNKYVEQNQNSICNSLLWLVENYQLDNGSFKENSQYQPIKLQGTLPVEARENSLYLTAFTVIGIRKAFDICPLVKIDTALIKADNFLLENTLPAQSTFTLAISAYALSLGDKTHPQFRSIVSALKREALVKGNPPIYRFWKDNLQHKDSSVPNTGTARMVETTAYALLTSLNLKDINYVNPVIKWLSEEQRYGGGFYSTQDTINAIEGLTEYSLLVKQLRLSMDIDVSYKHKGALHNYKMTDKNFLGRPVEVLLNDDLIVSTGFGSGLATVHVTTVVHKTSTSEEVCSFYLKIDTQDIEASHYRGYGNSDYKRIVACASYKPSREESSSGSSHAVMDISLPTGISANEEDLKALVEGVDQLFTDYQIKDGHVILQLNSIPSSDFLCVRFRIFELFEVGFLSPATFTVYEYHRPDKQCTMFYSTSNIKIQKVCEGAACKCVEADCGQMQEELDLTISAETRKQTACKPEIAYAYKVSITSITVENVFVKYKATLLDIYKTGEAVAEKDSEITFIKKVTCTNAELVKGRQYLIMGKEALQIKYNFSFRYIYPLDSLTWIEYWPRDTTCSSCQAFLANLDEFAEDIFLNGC
rabbit C5 (rabbit), sequence (P01031 whole entry): as above

With Ac-KVERFD[NMeD][Tle]Y[Trp(7-aza)]EYP[Chg]K([PEG24′-γGlu-Palmitoyl])-OH (lactam 1-6) [R5000] the “IC50 of inhibition of red blood cell hemolysis, rabbit serum/plasma” value (rabbit C5) was greater than 67 µM, the “IC50 of inhibition of red blood cell hemolysis, human serum/plasma” value (human C5) was 0.0066 µM and the “IC50 of inhibition of red blood cell hemolysis, dog serum/plasma” value (dog C5) was greater than 4.7 µM. For the same binder, the “IC50 of inhibition of hERG potassium channel current (parallel patch-clamp, HEK293 cells)” value [1] was greater than 300 µM.
